Here are results for 11 molecules from patent publication US11473089B2, “Aptamer for ADAMTS5 and use for aptamer for ADAMTS5” (RIBOMIC INC., priority 2017, dated 2022).

Positions count from the first letter of the chain named.

T1: ADAMTS5 (Homo sapiens, UniProt Q9UNA0)
T1 construct: purchased R&D systems
T1 sequence (Q9UNA0 262-930): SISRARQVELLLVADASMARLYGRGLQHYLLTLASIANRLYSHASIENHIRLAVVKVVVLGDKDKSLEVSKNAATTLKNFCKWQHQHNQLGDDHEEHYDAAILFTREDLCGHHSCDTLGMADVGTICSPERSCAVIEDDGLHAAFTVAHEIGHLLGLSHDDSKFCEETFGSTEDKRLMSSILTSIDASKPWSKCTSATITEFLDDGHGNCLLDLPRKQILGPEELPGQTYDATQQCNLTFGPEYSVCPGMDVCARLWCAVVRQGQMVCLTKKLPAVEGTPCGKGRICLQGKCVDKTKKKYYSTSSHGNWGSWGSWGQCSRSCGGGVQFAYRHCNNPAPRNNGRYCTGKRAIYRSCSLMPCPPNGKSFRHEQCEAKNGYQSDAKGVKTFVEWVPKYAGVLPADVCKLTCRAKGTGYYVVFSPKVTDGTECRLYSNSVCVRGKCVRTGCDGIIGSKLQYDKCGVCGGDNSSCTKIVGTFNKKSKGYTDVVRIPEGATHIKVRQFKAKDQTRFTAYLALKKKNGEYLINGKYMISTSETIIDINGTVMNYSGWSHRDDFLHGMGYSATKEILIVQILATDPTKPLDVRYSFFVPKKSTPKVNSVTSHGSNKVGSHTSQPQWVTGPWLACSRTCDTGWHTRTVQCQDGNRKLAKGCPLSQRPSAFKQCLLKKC

B1: 1 (nucleic acid)
chain: GGGUACGACCGUCGUACGAUUGGGGCCUCCACAGCUGCUCAGCUUGGACUAAACCAAUAAGAGACUAACGCCUAGCGUAC
modifications: 2'-fluoro at CU, RNA at AG, backbone not given here
B2: 20 (nucleic acid)
chain: GGGACAUGCGUAACUGUAUAGGGGCCUCCGCAGCUAUUCAGCUCGGACAUAAACCAUACAGUCCAGAUCGAGCA
modifications: aptamer; 2'-fluoro at CU, RNA at AG, backbone not given here
B3: 21 (nucleic acid)
chain: GGGACAUGCGUAACUAUAUAGGGGCCUCCACAGCUGUAAAGCUUGGACUUAAACCAUAUAGAGUCCAGAUCGAGCA
modifications: 2'-fluoro at CU, RNA at AG, backbone not given here
B4: 19 (nucleic acid)
chain: GGGACAUGCGUAACUUGAUAGGGGCCUCCACAGCUGAUAAGCUUGGACUCAAACCAUCAAGUCCAGAUCGAGCA
modifications: aptamer; 2'-fluoro at CU, RNA at AG, backbone not given here
B5: 22 (nucleic acid)
chain: B2 chain with U17C, G30A, C44U, U50C, A58G
modifications: aptamer; 2'-fluoro at CU, RNA at AG, backbone not given here
B6: 25 (nucleic acid)
chain: B2 chain with U17C, G30A, C44U, U50C, A58G
modifications: aptamer; 2'-fluoro at CU, RNA at AG, backbone not given here
B7: 23 (nucleic acid)
chain: B4 chain with U16G, G17U, U38A, C58A, A59C
modifications: aptamer; 2'-fluoro at CU, RNA at AG, backbone not given here
B8: 16 (nucleic acid)
chain: B4 chain with A30G, A39C, U44C
modifications: aptamer; 2'-fluoro at CU, RNA at AG, backbone not given here
B9: 17 (nucleic acid)
chain: B4 chain with U16G, G17U, U38A, C58A, A59C
modifications: aptamer; 2'-fluoro at CU, RNA at AG, backbone not given here
B10: 18 (nucleic acid)
chain: B2 chain with U17C, A20C, A36G, C39A, A49U, U50C, A58G
modifications: aptamer; 2'-fluoro at CU, RNA at AG, backbone not given here
B11: 24 (nucleic acid)
chain: B4 chain with U35C, A37G, A40G
modifications: aptamer; 2'-fluoro at CU, RNA at AG, backbone not given here

The target in the first data set is T1, ADAMTS5. The experiment in a line: binding activity to ADAMTS5 by surface plasmon resonance (Biacore T100). As to conditions: Table 1; 0.1 μM ADAMTS5 analyte, aptamer immobilized on SA chip. How it is done:
The binding activity of aptamers having the nucleotide sequences shown in SEQ ID NOs: 1 and 2 to ADAMTS5 was evaluated by the surface plasmon resonance method. Biacore T100 manufactured by GE Healthcare was used for the measurement. The SA chip was used as the sensor chip, which had streptavidin immobilized thereon. About 800 RU of a 16-nucleotide Poly dT with biotin at the 5′-terminal was bound on the chip. […] ADAMTS5 for analyte was prepared at 0.1 μM, and injected at a flow rate of 30 μL/min for 60 sec. As the running buffer, solution C was used. The solution C is a mixed solution of 300 mM sodium chloride, 5.4 mM potassium chloride, 1.8 mM calcium chloride, 0.8 mM magnesium chloride, 20 mM tris (pH 7.6), and 0.05% Tween20.
SEQ ID NO: 2 has a sequence with one base deletion from the continuous 4 G bases in the consensus sequence, and it was shown from the measurement results of the binding activity that the continuous 4 G bases in the consensus sequence are important for the activity of aptamers. Sensorgram showing the binding of an aptamer having the nucleotide sequence shown in SEQ ID NO: 1 to ADAMTS5 is presented in FIG. 2. In Table 1, “++” indicates those with the proportion of ADAMTS5 binding amount (RU value) to the amount of aptamer immobilized on the SA chip (RU value) of not less than 40%, “+” indicates those with the proportion of not less than 10% and less than 40%, and “−” indicates those with the proportion of less than 10%.
The binding activity and enzyme inhibitory activity of aptamers having nucleotide sequences shown in SEQ ID NOs: 16-25 to ADAMTS5 were measured. The binding activity was evaluated by the surface plasmon resonance method. For the measurement, a method similar to that in Example 1 was used. The enzyme inhibitory activity was measured by a method similar to that in Example 1. […] The negative control nucleic acid refers to the nucleic acid pool used in the first round of the SELEX method. The “++” indicates those with the proportion of ADAMTS5 binding amount (RU value) to the amount of aptamer immobilized on the SA chip (RU value) of not less than 40%, and “+” indicates those with the proportion of less than 40%. […] “n.d.” means not determined.
The binding activity of the nucleic acids shown in SEQ ID NOs: 30-45 to ADAMTS5 was measured. The binding activity was evaluated by the surface plasmon resonance method. In the Table, “++” indicates those with the proportion of ADAMTS5 binding amount (RU value) to the amount of aptamer immobilized on the SA chip (RU value) of not less than 40%, “+” indicates those with the proportion of not less than 10% and less than 40%, and “−” indicates those with the proportion of less than 10%.
In general terms: Surface plasmon resonance follows binding to a sensor surface in real time, without labels.
Turning to B1, the “binding activity by Biacore” value was “++ (proportion of ADAMTS5 binding amount (RU value) to the amount of aptamer immobilized on the SA chip (RU value) of not less than 40%)”.

The data set is the same for the next values; noted with them: Table 7.
On to B2, for which the binding activity entry was “+ (proportion of less than 40%)”.
The same measure, in the same setting: the same measure for B3: “++ (proportion of ADAMTS5 binding amount (RU value) to the amount of aptamer immobilized on the SA chip (RU value) of not less than 40%)”; for B4: “+ (proportion of less than 40%)”.
On the same count and under the same terms, to B5 belongs “++ (proportion of ADAMTS5 binding amount (RU value) to the amount of aptamer immobilized on the SA chip (RU value) of not less than 40%)”.
In the case of B6, the binding activity result is “++ (proportion of ADAMTS5 binding amount (RU value) to the amount of aptamer immobilized on the SA chip (RU value) of not less than 40%)”.
On the same count and under the same terms, to B7 belongs “++ (proportion of ADAMTS5 binding amount (RU value) to the amount of aptamer immobilized on the SA chip (RU value) of not less than 40%)”; to B8, “+ (proportion of less than 40%)”; to B9, “+ (proportion of less than 40%)”.
As for B10, the binding activity result is recorded as “+ (proportion of less than 40%)”.
The same measure, in the same setting: the same measure for B11: “++ (proportion of ADAMTS5 binding amount (RU value) to the amount of aptamer immobilized on the SA chip (RU value) of not less than 40%)”.

Still in this data set, the particulars now being: surface plasmon resonance.
With B1, the “binding to ADAMTS5 (in words)” value is “binds to ADAMTS5”.

The target of a further data set is T1, ADAMTS5. Nature of the data set: ADAMTS5 enzyme inhibition, aggrecan G1-IGD-G2 cleavage, SDS-PAGE detection (evaluation method 1). Type of data set: biochemical. The note with it: Table 2; mean of four measurements; 5 nM ADAMTS5, 50 μg/mL substrate; read-out: IC50, inhibitory activity against ADAMTS5. How it is done:
Whether an aptamer having the nucleotide sequence shown in SEQ ID NO: 1 inhibits the enzyme activity of ADAMTS5 was evaluated by the following method. As a substrate of ADAMTS5, the G1-IGD-G2 domain of aggrecan (manufactured by R&D systems) was used. ADAMTS5 specifically cleaves in between the 392nd glutamic acid and the 393rd alanine in the G1-IGD-G2 domain and produces two fragments. These fragments have faster electrophoretic mobility than uncleaved G1-IGD-G2. Thus, the enzyme activity of ADAMTS5 can be measured by quantifying the band intensity of G1-IGD-G2 by SDS-PAGE electrophoresis. The assay was performed in a solution A buffer with a reaction mixture volume of 10 μL. First, a mixture (10 μL) of a nucleic acid and ADAMTS5 was prepared and incubated at 25° C. for 15 min. To a substrate solution (5 μL) diluted with solution A was added a mixture (5 μL) of the nucleic acid and ADAMTS5 to start the enzyme reaction. The final concentration of ADAMTS5 in the reaction solution was 5 nM, and the final substrate concentration was 50 μg/mL. The reaction solution was incubated at 37° C. for 2 hr, 2 μL of solution D was added, and the mixture was heated at 95° C. for 2 min to stop the enzyme reaction of ADAMTS5. Solution D contains 0.25 M tris (pH 6.8), 10% SDS, 50% glycerol, 0.25% bromo phenolblue, and 20% 2-mercaptoethanol. The heat-treated reaction solution was electrophoresed by 7.5% SDS-PAGE and stained with SYPRO Orange (manufactured by Sigma-Aldrich). The staining was performed according to the manual of Sigma-Aldrich and detected using STORM840 manufactured by GE Healthcare. For analytical curves, uncleaved substrates 1000 ng, 400 ng, 160 ng, 64 ng, 25.6 ng, 10.24 ng, and 4.1 ng were electrophoresed, and staining and detection were performed in the same manner. The amount of uncleaved substrate in each reaction solution was quantified from the band intensity and the standard curve. The substrate cleavage efficiency of ADAMTS5 under these reaction conditions was 80-100%. The inhibition rate of the test substance was calculated using the following equation. inhibition rate (%)=(Sapt−SE)/(S0−SE)×100 wherein Sapt is the amount of an uncleaved substrate with the addition of a test substance, SE is the residual amount of an uncleaved substrate with the addition of ADAMTS5, and S0 is the residual amount of an uncleaved substrate without the addition of ADAMTS5.
The concentration of an inhibitor necessary for inhibiting 50% of the enzyme activity (IC50) was determined. IC50 is a mean of four measurements.
The term IC50 denotes the concentration needed to halve the response being measured. Turning to B1, the IC50 is 16.8 ± 2.8 nM.

The data set is the same for the next values; noted with them: Table 7; 10 nM aptamer.
B2: the “inhibitory activity % 10 nM aptamer” value is reported as 15.5%.
Same read-out and setting: to B3 belongs 56.9%; to B4, 2.9%; to B5, 14.8%.
As for B7, the “inhibitory activity % 10 nM aptamer” value turned out to be 14.5%.
Same read-out and setting: to B8 belongs 46.3%; to B9, 12.3%; to B10, 2.9%.
On the same count and under the same terms, to B11 belongs 20.2%.

Staying with this data set, now noted: Table 7; 20 nM aptamer.
With B6, the “inhibitory activity % 20 nM aptamer” value is 72.1%.

The data set is the same for the next values; noted with them: Table 7; 30 nM aptamer.
For B2, the “inhibitory activity % 30 nM aptamer” value is given as 111.1%.
Regarding B4, the “inhibitory activity % 30 nM aptamer” value is 93.5%.
Same read-out and setting: the same measure for B8: 93.6%; for B9: 88.2%.
For the molecule B10, the “inhibitory activity % 30 nM aptamer” value was 90.4%.

Staying with this data set, now noted: Table 8; 30 nM aptamer.
As for B3, the “inhibitory activity % 30 nM aptamer” value came out at 78.8%.
